The labels stand for the following.
T1: cynomolgus monkey latent myostatin (cynomolgus monkey, UniProt Q95J86 25-266; Q95J86 267-375, limits assumed)
T1 construct: also called cyno latent myostatin
T1 sequence 1: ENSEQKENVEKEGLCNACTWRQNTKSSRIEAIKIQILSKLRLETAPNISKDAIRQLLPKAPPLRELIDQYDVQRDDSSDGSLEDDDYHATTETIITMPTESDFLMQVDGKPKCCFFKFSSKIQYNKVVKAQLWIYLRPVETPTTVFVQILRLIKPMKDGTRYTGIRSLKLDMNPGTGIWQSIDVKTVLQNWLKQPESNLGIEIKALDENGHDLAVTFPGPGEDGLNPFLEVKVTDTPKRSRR
T1 sequence 2: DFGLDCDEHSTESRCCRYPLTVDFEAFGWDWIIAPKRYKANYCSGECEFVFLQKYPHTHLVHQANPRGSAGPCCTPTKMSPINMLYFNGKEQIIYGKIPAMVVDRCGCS

T2: human latent myostatin (human, UniProt O14793 25-266; O14793 267-375)
T2 construct: non-covalent complex of two propeptides and the mature homodimer; also called human myostatin latent form
T2 sequence 1: T1 sequence 1 with A52V
T2 sequence 2: T1 sequence 2

T3: mouse latent myostatin (mouse, UniProt O08689 26-267; O08689 268-376)
T3 sequence 1: T1 sequence 1 with N2G, Q5R, K6E, T19A, K25R, S26Y, K59R, V107A, E140K, N173S
T3 sequence 2: T1 sequence 2

T4: human Fc gamma RIIb extracellular domain, His-tagged (human, UniProt P31994 43-217)
T4 construct: also called FcgRIIb
T4 sequence: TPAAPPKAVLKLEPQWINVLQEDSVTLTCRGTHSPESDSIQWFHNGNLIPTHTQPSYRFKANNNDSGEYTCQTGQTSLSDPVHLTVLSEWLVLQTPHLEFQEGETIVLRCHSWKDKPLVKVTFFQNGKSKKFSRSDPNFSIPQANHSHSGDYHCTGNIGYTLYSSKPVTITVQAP

B1: MS_M103240H795-SG1/M103202L1045-SK1 (antibody, human IgG1, kappa)
heavy: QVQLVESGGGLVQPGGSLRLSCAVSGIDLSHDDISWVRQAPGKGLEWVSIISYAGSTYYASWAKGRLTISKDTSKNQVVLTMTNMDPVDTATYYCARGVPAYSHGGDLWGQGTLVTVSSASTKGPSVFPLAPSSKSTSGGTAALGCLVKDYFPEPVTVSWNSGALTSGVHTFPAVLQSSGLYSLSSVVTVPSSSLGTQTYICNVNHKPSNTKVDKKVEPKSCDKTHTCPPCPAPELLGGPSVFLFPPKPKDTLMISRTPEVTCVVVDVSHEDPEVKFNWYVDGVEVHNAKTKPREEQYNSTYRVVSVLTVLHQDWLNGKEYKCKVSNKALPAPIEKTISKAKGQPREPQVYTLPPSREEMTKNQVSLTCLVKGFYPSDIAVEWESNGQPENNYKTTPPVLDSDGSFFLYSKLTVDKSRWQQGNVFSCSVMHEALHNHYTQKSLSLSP
light: DIVMTQSPATLSLSPGERATLSCTTSQSVYHENWLSWFQQKPGQPPKLLIYWASTLAYGVPSRFSGSGSGTDFTLTISSLQPEDAATYYCAGGYGGGRYAFGQGTKVEIKRTVAAPSVFIFPPSDEQLKSGTASVVCLLNNFYPREAKVQWKVDNALQSGNSQESVTEQDSKDSTYSLSSTLTLSKADYEKHKVYACEVTHQGLSSPVTKSFNRGEC
notes: also called MS1032LO19-SG1
B2: MS_M103240H1246-SG1/M103202L1045-SK1 (antibody, human IgG1, kappa, V domains shown)
VH: QVQLVESGGGLVQPGGSLRLSCAVSGIDLSHEDISWVRQAPGKGLEWVSIISYAGSKYYASWAKGRLTISKDTSKNQVVLTMTNMDPVDTATYYCARGVPAYSHGGDLWGQGTLVTVSS
VL: DIVMTQSPATLSLSPGERATLSCTTSQSVYHENWLSWFQQKPGQPPKLLIYWASTLAYGVPSRFSGSGSGTDFTLTISSLQPEDAATYYCAGGYGGGRYAFGQGTKVEIKR
notes: also called MS1032LO25-SG1
B3: MS_M103245H795-SG1/M103202L1045-SK1 (antibody, human IgG1, kappa, V domains shown)
VH: QVTLKESGPVLVKPTETLTLTCKVSGIDLSHDDISWVRQAPGKGLEWVSIISYAGSTYYASWAKGRLTISKDTSKNQVVLTMTNMDPVDTATYYCARGVPAYSHGGDLWGQGTLVTVSS
VL: B2 VL
notes: also called MS1032LO21-SG1
B4: MS_M103245H1233-SG1/M103202L1045-SK1 (antibody, human IgG1, kappa, V domains shown)
VH: B3 VH with D32E
VL: B2 VL
notes: also called MS1032LO23-SG1
B5: Ab003 (M103205H009/M103202L000) (antibody, V domains shown)
VH: B3 VH with K23T, H31S, D32Y, S49G, Y53H, H104T
VL: B2 VL with T24Q, T25S, H31D, E32N, Y58S, R98L
notes: variant of MS1032LO00-SG1
B6: Ab006 (M103205H000/M103202L008) (antibody, V domains shown)
VH: B3 VH with K23T, H31S, D32Y, S49G, H104T
VL: B2 VL with T24Q, T25S, E32N, Y58S, R98L
notes: variant of MS1032LO00-SG1
B7: Ab007 (M103205H028/M103202L008) (antibody, V domains shown)
VH: B3 VH with K23T, H31S, D32Y, S49G
VL: B2 VL with T24Q, T25S, E32N, Y58S, R98L
notes: variant of MS1032LO00-SG1
B8: Ab005 (M103205H028/M103202L000) (antibody, V domains shown)
VH: B3 VH with K23T, H31S, D32Y, S49G
VL: B2 VL with T24Q, T25S, H31D, E32N, Y58S, R98L
notes: variant of MS1032LO00-SG1
B9: Ab004 (M103205H026/M103202L000) (antibody, V domains shown)
VH: B3 VH with K23T, H31S, D32Y, S49G, Y102H, H104T
VL: B2 VL with T24Q, T25S, H31D, E32N, Y58S, R98L
notes: variant of MS1032LO00-SG1
B10: MS103205H795-SG141/M103202L889-SK1 (antibody, human IgG1, kappa)
heavy: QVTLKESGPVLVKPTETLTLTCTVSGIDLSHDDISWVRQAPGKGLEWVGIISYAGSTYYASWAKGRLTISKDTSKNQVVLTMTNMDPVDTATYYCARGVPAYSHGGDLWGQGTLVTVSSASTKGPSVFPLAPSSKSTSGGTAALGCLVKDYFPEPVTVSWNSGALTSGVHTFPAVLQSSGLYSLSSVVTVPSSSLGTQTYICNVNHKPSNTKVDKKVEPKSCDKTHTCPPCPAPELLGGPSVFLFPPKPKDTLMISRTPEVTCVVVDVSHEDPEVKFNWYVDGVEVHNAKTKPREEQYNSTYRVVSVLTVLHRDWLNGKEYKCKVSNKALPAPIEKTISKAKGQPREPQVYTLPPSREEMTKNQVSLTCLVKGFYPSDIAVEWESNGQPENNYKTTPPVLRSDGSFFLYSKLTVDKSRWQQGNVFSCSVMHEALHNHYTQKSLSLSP
light: B1 light with T25S, E32A
notes: copies: 2 + 2
B11: MS1032LO06-P1540m (antibody, human IgG1, kappa)
heavy: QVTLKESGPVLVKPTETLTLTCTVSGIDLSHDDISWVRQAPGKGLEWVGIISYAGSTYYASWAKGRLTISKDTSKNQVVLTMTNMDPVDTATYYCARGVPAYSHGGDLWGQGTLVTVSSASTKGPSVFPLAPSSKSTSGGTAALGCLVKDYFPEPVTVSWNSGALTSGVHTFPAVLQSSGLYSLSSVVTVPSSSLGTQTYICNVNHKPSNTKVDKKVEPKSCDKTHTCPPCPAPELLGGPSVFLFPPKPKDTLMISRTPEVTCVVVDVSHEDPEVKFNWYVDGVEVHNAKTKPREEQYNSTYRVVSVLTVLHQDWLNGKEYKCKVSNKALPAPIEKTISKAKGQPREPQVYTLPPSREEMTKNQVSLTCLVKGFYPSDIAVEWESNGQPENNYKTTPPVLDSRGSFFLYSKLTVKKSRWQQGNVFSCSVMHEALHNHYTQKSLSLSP
light: B1 light with T25S, E32A
notes: copies: 2 + 2
B12: MS1032LO06-P1499m (antibody, human IgG1, kappa)
heavy: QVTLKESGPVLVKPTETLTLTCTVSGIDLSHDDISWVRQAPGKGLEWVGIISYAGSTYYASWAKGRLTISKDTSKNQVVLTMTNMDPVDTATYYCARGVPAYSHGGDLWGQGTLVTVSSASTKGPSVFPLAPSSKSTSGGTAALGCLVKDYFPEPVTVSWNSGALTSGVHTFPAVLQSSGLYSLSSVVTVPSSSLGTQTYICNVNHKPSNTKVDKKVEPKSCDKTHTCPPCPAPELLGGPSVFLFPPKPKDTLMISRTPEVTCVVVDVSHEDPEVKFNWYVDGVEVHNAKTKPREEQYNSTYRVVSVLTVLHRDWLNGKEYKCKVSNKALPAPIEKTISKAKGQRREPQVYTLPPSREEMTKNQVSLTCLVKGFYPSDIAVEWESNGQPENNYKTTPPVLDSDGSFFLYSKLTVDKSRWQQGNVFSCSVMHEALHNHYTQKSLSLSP
light: B1 light with T25S, E32A
B13: GpH7-B3 G237Y/GpL16-k0 (antibody, human IgG1, kappa)
heavy: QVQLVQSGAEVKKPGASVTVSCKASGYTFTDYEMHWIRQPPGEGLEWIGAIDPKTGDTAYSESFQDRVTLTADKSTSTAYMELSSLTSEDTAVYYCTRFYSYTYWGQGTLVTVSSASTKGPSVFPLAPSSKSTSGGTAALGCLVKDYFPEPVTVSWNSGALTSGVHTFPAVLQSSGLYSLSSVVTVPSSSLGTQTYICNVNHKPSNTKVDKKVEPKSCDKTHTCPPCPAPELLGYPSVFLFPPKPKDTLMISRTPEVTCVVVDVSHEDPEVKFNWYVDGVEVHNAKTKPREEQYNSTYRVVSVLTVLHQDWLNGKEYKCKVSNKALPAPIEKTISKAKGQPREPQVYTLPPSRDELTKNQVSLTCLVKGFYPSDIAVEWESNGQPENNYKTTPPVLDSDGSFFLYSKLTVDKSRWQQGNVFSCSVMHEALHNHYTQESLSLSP
light: DIVMTQSPLSLPVTPGEPASISCQASESLVHSNRNTYLHWYLQKPGQSPQLLIYKVSNRFSGVPDRFSGSGSGTDFTLKISRVEAEDVGVYYCSQNTHVPPTFGQGTKVEIERTVAAPSVFIFPPSDEQLKSGTASVVCLLNNFYPREAKVQWKVDNALQSGNSQESVTEQDSKDSTYSLSSTLTLSKADYEKHKVYACEVTHQGLSSPVTKSFNRGEC
notes: copies: 2 + 2
B14: GpH7-B3 N325L/GpL16-k0 (antibody, human IgG1, kappa)
heavy: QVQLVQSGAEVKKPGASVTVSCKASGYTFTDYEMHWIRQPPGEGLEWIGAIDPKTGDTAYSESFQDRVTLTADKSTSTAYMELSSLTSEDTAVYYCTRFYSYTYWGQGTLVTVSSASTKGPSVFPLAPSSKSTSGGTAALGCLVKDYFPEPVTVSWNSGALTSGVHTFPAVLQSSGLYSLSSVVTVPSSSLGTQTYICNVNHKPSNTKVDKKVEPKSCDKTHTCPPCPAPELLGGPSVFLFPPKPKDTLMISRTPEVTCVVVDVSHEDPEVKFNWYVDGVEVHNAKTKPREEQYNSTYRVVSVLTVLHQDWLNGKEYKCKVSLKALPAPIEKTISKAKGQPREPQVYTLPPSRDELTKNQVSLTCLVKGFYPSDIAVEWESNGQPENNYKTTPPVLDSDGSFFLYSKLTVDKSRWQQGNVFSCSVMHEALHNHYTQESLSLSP
light: B13 light
notes: copies: 2 + 2

Data on 14 molecules can be found in EP4755449A2 (CHUGAI SEIYAKU KABUSHIKI KAISHA, dated 2026).

Residue numbers refer to the chain shown, from its start. Numbers in names are those of the source.

The first test deals with T1, cynomolgus monkey latent myostatin. Briefly: SPR 37C.
Take B1: the “ratio of KD at pH 5.8/pH7.4” value was 109.

As to B2, the “ratio of KD at pH 5.8/pH7.4” value is 41.

On to B3, for which the “ratio of KD at pH 5.8/pH7.4” value stood at 100.

With B4, the “ratio of KD at pH 5.8/pH7.4” value was determined as 26.

The target in another test is T2, human latent myostatin. The experiment in a line: SPR 37C.
With B1, the “ratio of KD at pH 5.8/pH7.4” value is 168.

As for B2, the “ratio of KD at pH 5.8/pH7.4” value was 92.

On to B3, for which the “ratio of KD at pH 5.8/pH7.4” value came out at 204.

In the case of B4, the “ratio of KD at pH 5.8/pH7.4” value turned out to be 62.

The target of another test is T3, mouse latent myostatin. The experiment in a line: SPR 37C.
In the case of B1, the “ratio of KD at pH 5.8/pH7.4” value came out at 106.

For B2, the “ratio of KD at pH 5.8/pH7.4” value turned out to be 38.

On to B3, for which the “ratio of KD at pH 5.8/pH7.4” value came out at 113.

On to B4, for which the “ratio of KD at pH 5.8/pH7.4” value came to 24.

The target in the next test is T2, human latent myostatin. Briefly: SPR, dissociation phase at pH5.8. (In general: SPR reads the build-up and loss of mass on a sensor chip optically.)
As to B5, the koff was 0.00088 s⁻¹.

For the molecule B6, the koff was 8.58e-05 s⁻¹.

The molecule B7 showed a koff of 0.000415 s⁻¹.

B8 yielded a koff of 7.63e-05 s⁻¹.

As for B9, the koff turned out to be 0.000186 s⁻¹.

A further test addresses T4, human Fc gamma RIIb extracellular …. Briefly: SPR 25C, antigen-antibody complex injected over captured His-tagged receptor.
For the molecule B10, the binding result is “binds”.

As for B11, the binding result is reported as “binds”.

In the case of B12, the binding result is listed as “binds”.

A further test addresses T1, cynomolgus monkey latent myostatin. Briefly: SPR 37C pH5.8; pH 5.8.
In the case of B1, the affinity, expressed as Kd, was 35.6 nM.

The molecule B2 displayed a Kd of 14.1 nM.

The molecule B3 had a Kd of 31 nM.

B4 returned a Kd of 7.71 nM.

The target in the next test is T2, human latent myostatin. Briefly: SPR 37C pH5.8; pH 5.8.
Consider B1, for which the affinity, expressed as Kd, was 45.8 nM.

B2 registered a Kd of 25.5 nM.

Consider B3, for which the Kd worked out at 52.3 nM.

As to B4, the Kd amounted to 16.1 nM.

Another test addresses T3, mouse latent myostatin. The experiment in a line: SPR 37C pH5.8; pH 5.8.
In turn, B1 registered a Kd of 28.7 nM.

In turn, B2 came in with a Kd of 9.88 nM.

B3 showed a Kd of 29.4 nM.

Regarding B4, the Kd was 6.4 nM.

The target of the next test is T5, human Fc gamma RIIIaV extracellular domain, His-tagged (human, UniProt P08637 17-208).
T5 construct: also called FcgRIIIaV
T5 sequence (P08637 17-208 F176V): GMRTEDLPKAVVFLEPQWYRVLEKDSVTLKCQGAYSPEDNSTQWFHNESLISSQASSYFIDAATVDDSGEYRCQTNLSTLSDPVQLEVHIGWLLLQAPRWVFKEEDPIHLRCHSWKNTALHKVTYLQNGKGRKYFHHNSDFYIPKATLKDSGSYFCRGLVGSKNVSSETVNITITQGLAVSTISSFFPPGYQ
The experiment in a line: SPR 25C.
With B13, the relative binding is 0 parent B3=100.

Molecule B14 registered a relative binding of 0 parent B3=100.

The target in a further test is T1, cynomolgus monkey latent myostatin. The experiment in a line: SPR 37C pH7.4; pH 7.4.
Molecule B1 returned a Kd of 0.326 nM.

The molecule B2 gave a Kd of 0.34 nM.

The molecule B3 returned a Kd of 0.309 nM.

In turn, B4 yielded a Kd of 0.299 nM.

In another test the target is T2, human latent myostatin. The experiment in a line: SPR 37C pH7.4; pH 7.4.
B1 had a Kd of 0.273 nM.

With B2, binding was characterised by a dissociation constant (Kd) of 0.276 nM.

Turning to B3, the Kd is 0.257 nM.

In the case of B4, the Kd stood at 0.26 nM.

The next test has as its target T3, mouse latent myostatin. Briefly: SPR 37C pH7.4; pH 7.4.
For the molecule B1, the Kd was found to be 0.271 nM.

Regarding B2, binding was characterised by a dissociation constant (Kd) of 0.259 nM.

Consider B3, for which binding was characterised by a dissociation constant (Kd) of 0.261 nM.

Turning to B4, binding was characterised by a dissociation constant (Kd) of 0.266 nM.

In general, koff refers to the first-order rate constant of dissociation. As a reminder, the Kd is the free concentration of one partner at which half of the binding sites on the other are occupied at equilibrium, for simple one-to-one binding.
